Laboratory results published in the supplement of paper PMC10567573.

B1: CAMK2B (parent)
chain: YQQIKAGAYDFPSPEWDTVTPEAK

Variants of: B1
Experiment: protein stability index of a GFP-peptide fusion (GPS, HEK-293T) (PSI 1-6); higher = more stable
Settings: c terminus: a fixed tail appended
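Note: lentivirally expressed fusions sorted by FACS into six bins by GFP to DsRed ratio, PSI derived from sequencing read proportions per bin multiplied by bin number.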

Point of comparison: YQQIKAGAYDFPSPEWDTVTPEAN, protein stability index 4.11. Against it:
- YQQIKAGAYDFPSPEWDTVTPEYK — lower, 3.43
- YQQIKAGAYDFPSPEWDTVTPEVK — lower, 3.27
- YQQIKAGAYDFPSPEWDTVTPETK — lower, 3.74
- YQQIKAGAYDFPSPEWDTVTPEPK — lower, 3.48
- YQQIKAGAYDFPSPEWDTVTPESK — lower, 3.86
- YQQIKAGAYDFPSPEWDTVTPEQK — lower, 4.06
- YQQIKAGAYDFPSPEWDTVTPEWK — lower, 3.25
- YQQIKAGAYDFPSPEWDTVTPERK — lower, 3.69
- YQQIKAGAYDFPSPEWDTVTPEAV — lower, 3.55
- YQQIKAGAYDFPSPEWDTVTPEAP — lower, 3.37
- YQQIKAGAYDFPSPEWDTVTPEAI — lower, 3.59
- YQQIKAGAYDFPSPEWDTVTPEAG — lower, 3.93
- YQQIKAGAYDFPSPEWDTVTPEAR — lower, 3.43
- YQQIKAGAYDFPSPEWDTVTPEAM — lower, 3.27
- YQQIKAGAYDFPSPEWDTVTPEAD — the same, 4.11
- YQQIKAGAYDFPSPEWDTVTPEAH — lower, 3.6
- YQQIKAGAYDFPSPEWDTVTPEAC — lower, 3.38
- YQQIKAGAYDFPSPEWDTVTPEAS — lower, 3.93
- YQQIKAGAYDFPSPEWDTVTPEAQ — lower, 3.81
- YQQIKAGAYDFPSPEWDTVTPEAL — lower, 3.1
- YQQIKAGAYDFPSPEWDTVTPEAF — lower, 2.71
- YQQIKAGAYDFPSPEWDTVTPEAY — lower, 3.04
- YQQIKAGAYDFPSPEWDTVTPEAE — higher, 4.21
- YQQIKAGAYDFPSPEWDTVTPEAT — lower, 3.47
- YQQIKAGAYDFPSPEWDTVTPEAW — lower, 2.63
- YQQIKAGAYDFPSPEWDTVTPEAA — lower, 3.78
